Values of other authors as cited in patent US9205345B2, “Spray-drying apparatus and methods of using the same” (Bend Research, Inc., priority 2010, dated 2015).

How the values were obtained:
[1] = not given; remark: listed apart in the source
[2] = not given; remark: listed apart in the source

With Peptide YY (PYY) [Active Agent 3] as the compound, how does the solubility in water read?
Its solubility in water is “soluble in water”.

For insulin [Active Agent 2], which “Log P” value [1] is on record?
Its value is 0.22.

And the pKa [2]?
The pKa was 5.39.

What does the source list for CC(C)(C)NCC(O)c1ccc(O)c(CO)c1 (centres unmarked) [Active Agent 1, 4-[2-(tert-butylamino)-1-hydroxyethyl]-2-(hydroxymethyl)phenol, reference compound]?
Log P [1]: 0.11; solubility in water: freely soluble in water
